Here are results for four molecules from patent US20200079844A1 (Ablynx, published 2020).

One assay concerns the target T1, rhesus serum albumin (rhesus, UniProt Q28522 17-600).
T1 construct: On the Biacore chip; also called rhesus albumin

Assay [1] deals with T2, mouse serum albumin (mouse, UniProt P07724 25-608).
T2 construct: On the Biacore chip; also called mouse albumin

Another assay concerns the target T3, human serum albumin (human, UniProt P02768 25-609).
T3 construct: On the Biacore chip; also called human albumin

The target in the next assay is Protein A (UniProt P38507 37-477).
Assay [2] has as its target T2, mouse serum albumin. This is another data set of the same source.
Assay [3] deals with T4, human TNFα (human, UniProt P01375 77-233). As to the kind of experiment: cell-based or functional assay.
T4 sequence (P01375 77-233 limits assumed): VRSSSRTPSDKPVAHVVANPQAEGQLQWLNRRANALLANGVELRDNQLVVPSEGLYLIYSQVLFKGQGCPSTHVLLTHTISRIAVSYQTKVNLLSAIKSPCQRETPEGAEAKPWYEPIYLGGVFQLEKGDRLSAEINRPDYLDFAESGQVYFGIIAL
Assay [4] deals with T4, human TNFα. Kind of assay: ELISA, biotinylated TNFα on neutravidin, anti-myc detection; 50% binding. A general note: ELISA stands for enzyme-linked immunosorbent assay.
Assay [5] has as its target T4, human TNFα. Kind of assay: competition ELISA, biotinylated TNFα (10 ng/ml) pre-incubated with nanobody, binding to coated Enbrel; 50% inhibition.
Assay [6] addresses T4, human TNFα.
The target in assay [7] is T4, human TNFα. This is another data set of the same source.
For assay [8], the target named is T4, human TNFα. As to the kind of experiment: cell-based or functional assay. This is another data set of the same source.
For assay [9], the target named is T4, human TNFα. Kind of assay: cell-based or functional assay. The source holds these as a separate data set.
Assay [10] addresses T4, human TNFα. The source holds these as a separate data set.
Assay [11] addresses T4, human TNFα. The source holds these as a separate data set.
In assay [12] the target is T5, rhesus TNFα (rhesus, UniProt P48094 77-233). As to the kind of experiment: cell-based or functional assay.
T5 sequence (P48094 77-233 limits assumed): as the sequence (P01375 77-233 limits assumed) above, with R44T, T72N, R138L counted along it
Assay [13] concerns the target T4, human TNFα. As to the kind of experiment: cell-based or functional assay. This is another data set of the same source.
In assay [14] the target is T4, human TNFα. As to the kind of experiment: competition ELISA, biotinylated human TNFα pre-incubated with nanobody, binding to coated Enbrel; 50% inhibition.
Assay [15] addresses T5, rhesus TNFα. As to the kind of experiment: cell-based or functional assay. The source holds these as a separate data set.
Assay [16] deals with T4, human TNFα. As to the kind of experiment: cell-based or functional assay. This is another data set of the same source.

Read-outs that look alike come from different tables or passages of the source.

T1 sequence (Q28522 17-600 limits assumed): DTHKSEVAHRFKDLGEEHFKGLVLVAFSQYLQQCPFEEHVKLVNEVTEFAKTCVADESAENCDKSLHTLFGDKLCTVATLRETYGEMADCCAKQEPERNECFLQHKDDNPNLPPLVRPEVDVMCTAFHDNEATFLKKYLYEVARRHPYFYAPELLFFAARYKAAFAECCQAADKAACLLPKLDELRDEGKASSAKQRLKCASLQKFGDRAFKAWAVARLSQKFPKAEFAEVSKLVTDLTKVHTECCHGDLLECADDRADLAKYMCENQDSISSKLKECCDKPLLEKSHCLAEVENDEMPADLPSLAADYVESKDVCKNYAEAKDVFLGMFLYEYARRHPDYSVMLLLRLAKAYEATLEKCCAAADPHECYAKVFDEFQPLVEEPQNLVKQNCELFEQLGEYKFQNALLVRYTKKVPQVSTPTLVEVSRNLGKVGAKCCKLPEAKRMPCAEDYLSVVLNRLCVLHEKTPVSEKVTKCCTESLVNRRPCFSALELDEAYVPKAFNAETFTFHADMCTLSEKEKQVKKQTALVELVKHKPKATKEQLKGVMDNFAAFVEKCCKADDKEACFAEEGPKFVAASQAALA
T2 sequence (P07724 25-608 limits assumed): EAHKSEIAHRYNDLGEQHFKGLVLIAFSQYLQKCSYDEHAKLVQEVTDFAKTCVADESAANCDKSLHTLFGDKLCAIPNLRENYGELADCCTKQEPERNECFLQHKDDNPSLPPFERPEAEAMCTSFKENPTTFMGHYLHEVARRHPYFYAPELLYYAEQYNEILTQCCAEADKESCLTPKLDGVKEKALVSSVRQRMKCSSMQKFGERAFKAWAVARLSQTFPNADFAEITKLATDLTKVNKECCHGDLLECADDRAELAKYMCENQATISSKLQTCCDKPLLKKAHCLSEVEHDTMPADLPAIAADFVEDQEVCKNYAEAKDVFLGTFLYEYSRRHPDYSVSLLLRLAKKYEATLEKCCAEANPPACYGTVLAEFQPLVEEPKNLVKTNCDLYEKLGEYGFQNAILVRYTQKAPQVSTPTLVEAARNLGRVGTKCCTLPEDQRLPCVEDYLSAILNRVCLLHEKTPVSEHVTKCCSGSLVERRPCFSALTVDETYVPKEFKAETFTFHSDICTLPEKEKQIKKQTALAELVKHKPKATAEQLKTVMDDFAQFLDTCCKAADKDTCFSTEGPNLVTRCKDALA

B1: PMP6A8 (ALB2) (VHH)
VHH: AVQLVESGGGLVQGGGSLRLACAASERIFDLNLMGWYRQGPGNERELVATCITVGDSTNYADSVKGRFTISMDYTKQTVYLHMNSLRPEDTGLYYCKIRRTWHSELWGQGTQVTVSS
notes: Class C serum albumin nanobody; not shown: C-terminal c-myc tag and (His)6 tag coded by vector pAX051
On to B1, for which, in the assay with rhesus serum albumin, the Kd (commonly the free concentration of one partner at which half of the binding sites on the other are occupied at equilibrium, for simple one-to-one binding) was 0.036 nM; the off-rate (koff) (commonly the rate constant with which the complex falls apart) was 7.12e-05 s⁻¹; the kon (commonly a measure of how fast the partners come together) was 1.94e+06 M⁻¹ s⁻¹. For the same molecule, in the assay with mouse serum albumin [1], the Kd was found to be 15.7 nM, the koff was found to be 0.00307 s⁻¹ and the kon was 195000 M⁻¹ s⁻¹. In the assay with human serum albumin, this molecule yielded a Kd of 0.092 nM, a koff of 7.52e-05 s⁻¹ and an association rate constant (kon) of 815000 M⁻¹ s⁻¹. The binding result in the assay with Protein A is “no binding (tested: 10 uM)”. For the same molecule, in the assay with mouse serum albumin [2], the “difference in affinity for human/rhesus versus mouse serum albumin” value was 400 fold.

B2: PMP1G5 (TNF2) (VHH)
VHH: QVQLVESGGGLVQAGGSLRLSCAASGRTFSEPSGYTYTIGWFRQAPGKEREFVARIYWSSGLTYYADSVKGRFTISRDIAKNTVDLLMNSLKPEDTAVYYCAARDGIPTSRSVGSYNYWGQGTQVTVSS
notes: also called WT TNF2; not shown: C-terminal c-myc tag and (His)6 tag coded by vector pAX051
Regarding B2, the “EC50 in nM; alphaKYM cell assay (10000 c/w), human TNFa @ 1 ng/ml” value (“EC50 in nM; alphaKYM cell assay” for short) with human TNFα [3] turned out to be 4.24 nM. For the same molecule, it took 0.02 µg/mL to reach a half-maximal effect with human TNFα [4] (EC50). Further, the IC50 – broadly, the concentration that inhibits the measured activity by half – in the assay with human TNFα [5] was found to be 3.5 µg/mL. For the same molecule, the koff with human TNFα [6] is 0.00083 s⁻¹; with human TNFα [7] it was 0.00133 s⁻¹; with human TNFα [10], 0.000359 s⁻¹; in the assay with human TNFα [11], 0.00085 s⁻¹. Also, the “EC50 in nM (mean); L929s + Act D cytotoxicity assay, human TNFa @ 0.5 ng/ml” value (“EC50 in nM (mean) … human TNFa @ 0.5 ng/ml” below) with human TNFα [8] and in the assay with human TNFα [9] was 1.41 nM in each case. The “EC50 in nM (mean); L929s + Act D cytotoxicity assay, rhesus TNFα @ 0.5 ng/ml” value with rhesus TNFα [12] was greater than 50 nM. The “EC50 in nM (mean); L929s + Act D cytotoxicity assay, human TNFα @ 0.5 ng/ml” value with human TNFα [13] turned out to be 1.41 nM.

B3: TNF2-GS9-TNF2 (TNF5) (VHH)
chain: QVQLVESGGGLVQAGGSLRLSCAASGRTFSEPSGYTYTIGWFRQAPGKEREFVARIYWSSGLTYYADSVKGRFTISRDIAKNTVDLLMNSLKPEDTAVYYCAARDGIPTSRSVGSYNYWGQGTQVTVSSGGGGSGGGSQVQLVESGGGLVQAGGSLRLSCAASGRTFSEPSGYTYTIGWFRQAPGKEREFVARIYWSSGLTYYADSVKGRFTISRDIAKNTVDLLMNSLKPEDTAVYYCAARDGIPTSRSVGSYNYWGQGTQVTVSS
notes: Bivalent nanobody, 9 AA GlySer linker
With B3, the IC50 in the assay with human TNFα [14] stood at 0.0063 µg/mL. Also, in the assay with human TNFα [3], the “EC50 in nM; alphaKYM cell assay” value was determined as 0.008 nM. For the same molecule, the “EC50 in nM (mean); L929s + Act D cytotoxicity assay, rhesus TNFa @ 0.5 ng/ml” value with rhesus TNFα [15] is 35 nM. In the assay with human TNFα [16], the “EC50 in nM (mean) … human TNFa @ 0.5 ng/ml” value was found to be 0.02 nM.

B4: TNF2-GS30-TNF2 (TNF8) (VHH)
chain: QVQLVESGGGLVQAGGSLRLSCAASGRTFSEPSGYTYTIGWFRQAPGKEREFVARIYWSSGLTYYADSVKGRFTISRDIAKNTVDLLMNSLKPEDTAVYYCAARDGIPTSRSVGSYNYWGQGTQVTVSSGGGGSGGGGSGGGGSGGGGSGGGGSGGGGSQVQLVESGGGLVQAGGSLRLSCAASGRTFSEPSGYTYTIGWFRQAPGKEREFVARIYWSSGLTYYADSVKGRFTISRDIAKNTVDLLMNSLKPEDTAVYYCAARDGIPTSRSVGSYNYWGQGTQVTVSS
notes: Bivalent nanobody, 30 AA GlySer linker
As for B4, the half-maximal inhibitory concentration (IC50) with human TNFα [14] was found to be 0.023 µg/mL. Also, the “EC50 in nM; alphaKYM cell assay” value with human TNFα [3] was found to be 0.013 nM. Also, in the assay with rhesus TNFα [15], the “EC50 in nM (mean); L929s + Act D cytotoxicity assay, rhesus TNFa @ 0.5 ng/ml” value is 1.03 nM. Also, the “EC50 in nM (mean) … human TNFa @ 0.5 ng/ml” value in the assay with human TNFα [16] was determined as 0.007 nM.
